Laboratory results as given in patent US20250355001A1, “METHOD FOR DETECTING A TAU PROTEIN FRAGMENT IN A SAMPLE” (GTINVENT LIMITED, priority 2022, published 2025).

B1: CC7: human-specific anti-tau clone, Table 10; SEQ ID NO: 365 (protein)
scFv: QVQLQESGPSLVKPSQTLSLTCTVSGFSLTSNAVIWVRQAPGKAPEWVALIDVDGDAAYDPALKSRLSITRDTSKSQVSLSLRSVTTEDTAVYYCARDYGSWGYVSDIDYWGPGLLVTVSSEGKSSGASGESKVDDRVVRTQPSSVSGSLGQRVSITCSGSYITGSSVGWFQQVPGSGLKTVIYDNNDRPSGVPDRFSGSKSGDTATLTISSLQAEDEADYYCASYDTSNIGLFGSGTRLTVLG
modifications: CC7 amino acid sequence
B2: 3bG4: N-terminal anti-tau clone, Table 6; SEQ ID NO: 425 (protein)
chain: QVQLQESGPSLVKPSQTLSLTCTISGFSLISNGVGWVRQAPGKVPEWVGDIASSGKAYSNPALKSRLSITRDTSKSQVSLSLRSVTTEDTAVYYCVRCRDGGVTYGYDIDYWGPGLLVTVSSEGKSSGASGESKVDDQAVLTQPSSVSKSLGQSVSITCSGSTSNVGSGNDVSWFQQVPGSAPKLLFYGATNRASGVPDRFSGSRSGNTATLTITSLQAEDEADYYCGSYDSNSGGIFGSGTRLTVLG
modifications: 3bG4 amino acid sequence
B3: 3aG3: N-terminal anti-tau clone, Table 6; SEQ ID NO: 424 (protein)
chain: QVQLQESGPSLVKPSQTLSLTCTVSGFSLSSNGVGWVRQAPGKVPEWVGDISSSGKAYANPALKSRLSITRDTAKTQVFLSLSSVTTEDTAVYYCVRCRDGGVSYGYDIDYWGPGLLVTVSSEGKSSGASGESKVDDQAVLTQPPSVSGSPGQRVSITCSGSSSNIGGGNYLSWFQQVPGSAPKLLIYGATSRASGVPDRFSGSRSGNTATLTISSLQAEDEADYYCASFDTSSGGIFGAGTRLTVLG
modifications: 3aG3 amino acid sequence
B4: MD9: anti-tau clone, Table 10; SEQ ID NO: 373 (protein)
scFv: QVRLQESGPSLVKSSQTLSLTCTVSGFSLTRESIAWVRQAPGKVPEWLGGVGIDGTSYYSPALKSRLSITRDTSKSQASLSLSSVATEDTAMYYCARNYIDFEYWGPGLLVTVSSEGKSSGASGESKVDDQAVLTQLSSVSGSLGQRISITCSGSSSNVGIYDVSWFQQLPGSGLRTVIYGTNNRPSGVPDRFSGSRSGNTATLTISSLQSEDEAIYYCAAGDSSTIAVFGSGTRLTVLG
modifications: MD9 amino acid sequence
B5: 3bD11: anti-tau clone, Table 10; SEQ ID NO: 637 (protein)
scFv: RVRLQGSGPSLVKPSQTLSLTCTVSGFSFDSYYVGWVRQAPGKALEWLGNIYSTGRAFYNPALKSRLSITRDTSKSQVSLSVSSVTIEDTALYYCVRGSYYHGGGNGMVDFFDYWSPGLLVTVSSEGKSSGASGESKVDDQVVRTQPSSVSGSLGQRVSITCSGSSSNVGYGNYVGWFQQVPGSAPKLLIYAATSRASGVPDRFSGSRSGNTATLTIDSLQAEDEADYYCSSYQRGNTGVFGSGTRLTVLG
B6: 3aH6: N-terminal anti-tau clone, Table 6; SEQ ID NO: 423 (protein)
chain: QVQLQESGPSLVKPSQTLSLTCTVSGFSLSSNGVGWVRQAPGKVPEWLGDISSVGKKYANPALKSRLSFTRDTSKSQVSLSLSSVTTEDTAVYYCVKCRDGGVTYGYDIDYWGPGLLVTASSEGKSSGASGESKVDDQAVVTQPSSVSGSLGQSVSITCSGSSGNVGYGDYVSWFQQFHGSAPKLLIYGATNLASGVPARFSGSRSGNTATLTISSLHAEDEADYYCASYDSSSGGVFGSGTRLTVLG
modifications: 3aH6 amino acid sequence

Tests used:
[1] = target: T1, hT40 (T441, SEQ ID NO: 1) (Homo sapiens, UniProt P10636); experiment: Biacore X100 SPR kinetics of scAbs for hT40; format: binding
T1 construct: Full length tau (hT40)
Method: Surface plasmon resonance (SPR) is widely regarded as the gold standard for real time measurement of protein-protein interactions such as antibody binding. All SPR experiments were carried out using a Biacore X100 machine and HBS EP+ running buffer (GE Healthcare). A ‘capture’ method was followed for affinity measurements, where an anti-human constant kappa chain (HuCk) antibody was conjugated to the surface of a CM5 sensor chip using an amine coupling kit and scAb molecules were immobilised via their HuCk domain. Amine coupling is a very common approach for immobilising the ligand to the chip surface. […] The capture antibody was diluted 1/100 in 10 mM Sodium acetate buffer pH 5.0 and passed over the activated chip surface for a period of at least 420 s. Final ligand immobilisation levels over 12,000 RU were deemed to be satisfactory.
Following immobilisation, the level of each scAb to be captured was identified using the standard SPR equation with a theoretical RMax of 100 RU. Analyte MW refers to the molecular weight of hT40 or dGA/dGAE molecules, while ligand MW refers to the molecular weight of the scAbs tested. RL is the desired capture level and S refers to the stoichiometric ratio:
The scAb to be tested was added only to flow cell 2 so that flow cell 1 could act as a control to subtract any interaction with the analyte and the chip surface. Both single and multi-cycle runs were utilised using wizards developed in the Biacore X100 control software which are both accepted methods of kinetic analysis (Karlsson, R., et al. Analyzing a kinetic titration series using affinity biosensors (2006) Analytical Biochemistry 349:136-47). The multi-cycle protocol was as follows-Three start-up cycles composed of an initial capture, to the desired level, of the scAb to be tested was performed followed by a 30 s injection of glycine buffer pH 2.0 after each cycle to regenerate the chip surface. […] Following three start-up cycles increasing concentrations (0.15625 nM-100 nM) of the target to be tested were added to the chip surface after the desired scAb capture. The target was added for a 120 s association period and 420 s dissociation period followed by another regeneration, 30 s injection of glycine buffer pH 2.0 in between each cycle.
The single cycle kinetics protocol was similar and utilised the same level of scAb capture. Three start-up cycles were used followed by 5 increasing concentrations of the analyte (6.25 nM-100 nM) for an association period of 120 s followed by a dissociation period of 420 s for each concentration. In single cycle kinetics the regeneration step was performed only after the final analyte concentration was added. Binding responses were analysed in Biacore X100 evaluation software and data fitted to a 1:1 binding model to obtain kinetic and affinity characterisation.

[2] = tested on: hT40, dGA, dGAE and truncated tau fragments; experiment: Binding ELISA / epitope mapping of anti-tau scAbs with truncated tau proteins and 13mer peptides; parameters: species or system human; details: for Tau proteins/fragments with positive scAb reactivity: binding ELISA; for Shortest region bound on hT40: incl. 13mer peptides; for Short epitope on hT40: Table 18, '3a' & '3b' series scAbs; for hT40 binding region: second Table 25, mAb format
Method: A series of binding ELISA was performed using various truncated versions of the tau protein and 13mer peptide libraries spanning the entire hT40 molecule for mapping the epitopes of anti-tau scAbs (Full list of protein antigens used is given in Table 14). In general, ELISA plates were coated with 1 μg/ml hT40 or dGA or dGAE or other truncated versions of the protein and in the case of biotinylated peptides, plates were coated with 5 μg/ml Streptavidin followed by 1 μg/ml biotinylated peptide. The plates were blocked with 2% MPBS and scAb samples added at desired starting concentrations and double diluted across the plate. Binding was detected using anti-Human C Kappa HRP conjugated secondary antibody and the resulting immunoreaction was developed and absorbance values measured as described above.
Selected E specific scAbs and their specific binding to dGAE is shown below (FIG. 8A-E).
Similarly, dGA binding ‘NS’, ‘S’ and ‘M’ group scAbs were subjected to further antigen binding ELISA using shorter tau proteins and biotinylated 13mer peptides as shown below (FIG. 10A-F) and (FIG. 11A-R).

[3] = target: T2, htau40 (Homo sapiens, UniProt P10636); experiment: Biacore X100 SPR kinetics of anti-tau mAbs on immobilised htau40; format: binding
T2 construct: Full length tau (hT40)
Method: For anti-tau mAb SPR measurements, htau40 was conjugated to the surface of a CM5 sensor chip using amine coupling as explained previously. Briefly, 2 μg/mL htau40 in 10 mM Sodium acetate buffer (pH 4.0) was passed over the activated chip surface (EDC/NHS) in flow cell 2 for a period for 45 s followed by blocking with 1 M ethanolamine-HCl PH 8.5. Flow cell 1 was set up as reference control and blocked simultaneously. Final immobilisation level of htau40 (Rmax) was approximately 250 RU. Following a minimum of three start-up cycles, increasing concentrations (0.78 nM-25 nM) of the mAb in HBS-EP+ buffer was added at a rate of […] to the chip. The mAb was added for a 120 s association period and 600 s dissociation period followed by a regeneration cycle of 30 s injection of glycine buffer pH 1.5 in between each cycle. Binding responses were analysed in Biacore X100 evaluation software and data fitted to a 1:1 binding model to obtain kinetic and affinity characterisation.
For anti-tau mAb SPR measurements (Biacore X100™) and epitope mapping, the same methodologies described above (see Example 16) were followed. Kinetic rates and equilibrium binding constants of additional anti-tau mAbs and the regions recognised on hT40 are given in the Table 25 below

[4] = Table 23, scAb captured, T441 (hT40) analyte, 1:1 model
[5] = Table 26 summary, top scAbs, residues of hT40
[6] = residue numbers of SEQ ID NO: 1 (hT40), CDR Tables 1-11
[7] = Table 27, mAb format, immobilised htau40
[8] = Table 25, '3a' and '3b' scAbs, hT40
[9] = second Table 25, newly converted mAbs, hT40

T2 sequence (P10636 1-441 isoform P10636-8): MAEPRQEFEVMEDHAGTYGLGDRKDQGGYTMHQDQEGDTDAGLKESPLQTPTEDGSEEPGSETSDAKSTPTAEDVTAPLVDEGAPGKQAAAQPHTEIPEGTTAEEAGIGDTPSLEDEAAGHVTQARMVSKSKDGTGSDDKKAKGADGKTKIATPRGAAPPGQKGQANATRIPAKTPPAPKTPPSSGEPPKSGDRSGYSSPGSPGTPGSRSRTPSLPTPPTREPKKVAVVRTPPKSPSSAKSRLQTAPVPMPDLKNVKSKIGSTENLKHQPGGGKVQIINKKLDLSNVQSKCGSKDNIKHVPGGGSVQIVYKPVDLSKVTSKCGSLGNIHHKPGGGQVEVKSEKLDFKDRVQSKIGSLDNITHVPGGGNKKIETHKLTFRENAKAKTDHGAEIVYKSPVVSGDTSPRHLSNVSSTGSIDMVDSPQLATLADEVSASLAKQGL
T1 sequence (P10636 1-441 isoform P10636-8): as above

Molecule	ka [1, 4] [M⁻¹ s⁻¹]	kd [1, 4] [s⁻¹]	Tau proteins/fragments with positive scAb reactivity ([2]; Table 17, 'C' group scAbs)	Shortest region bound on hT40 ([2]; Table 17, 'C' group scAbs)	Epitope [2, 5]	Detection scAb (Epitope) ([2]; Table 28 (LoD table), residues of hT40)	binding region on hT40 ([2]; amino acid residues of hT40)	Epitope [2, 6]	ka [3, 7] [M⁻¹ s⁻¹]	kd [3, 7] [s⁻¹]	ka [1, 8] [M⁻¹ s⁻¹]	kd [1, 8] [s⁻¹]	Short epitope on hT40 [2]	hT40 binding region [2]	Binding region hT40 ([2]; second Table 26, own antibodies)	ka [3, 9] [M⁻¹ s⁻¹]	kd [3, 9] [s⁻¹]	Tau proteins/fragments with positive scAb reactivity ([2]; Table 16, NS, S and M clones)	Shortest region bound on hT40 ([2]; Table 16, NS, S and M clones)
B1	295700	0.0003659	hT40, 1-319	145-157	145-157	CC7 (145-157)	145-157	145-157	4.576e+06	0.03164	–	–	–	–	–	–	–	–	–
B2	–	–	–	–	–	–	–	1-49	–	–	6.669e+06	0.05966	1-49	1-15	(Binding region hT40 1-15)	4.54e+06	0.0002964	–	–
B3	–	–	–	–	–	–	–	1-49	–	–	62940	0.0003869	1-49	1-15	–	1.532e+07	0.004751	–	–
B4	–	–	–	–	373-385	–	–	373-385	–	–	–	–	–	373-385	–	66200	0.001462	hT40, 297-390 (dGA), 297-391 (dGAE), 369-390, 369-391	373-385
B5	–	–	–	–	–	–	–	37-49	–	–	–	–	–	37-49	–	2.671e+06	0.003979	–	–
B6	–	–	–	–	–	–	–	1-49	–	–	2.757e+06	0.009868	1-49	1-15	–	3.128e+06	0.0001522	–	–
